The record followed here is PMC4605427.

The target in assay [1] is phosphorylated cytosolic domain of the TCR γ-chain (pCD3γCD) (UniProt P09693). Nature of the assay: BLI.
In assay [2] the target is GST-pCD3γCD fusion protein (UniProt P09693). Nature of the assay: ELISA.

Take “ZAP-70 phenylalanine mutant Y315/Y319F, kinase-dead (FFDN) (from UniProt P43403 1-619) (enzyme)”: in assay [1], the KD2 (weak set), fold against its KD1 was determined as 10 fold; the koff1, ratio against AADN and tSH2 worked out at 0.5 fold; the koff2 (weak set), fold against its koff1 came to 20 fold; the kon1, fold against AADN and tSH2 amounted to 2 fold. The same substance returned a kon2 (weak set), fold against its kon1 in assay [1] of 2 fold. For the same substance, the fold concentration needed, against YY, to compete similarly in assay [2] was 3 fold.

For “kinase-dead D461N mutant of ZAP-70 (YYDN) (from UniProt P43403 1-619) (enzyme)”, in assay [1], the KD2 (weak set), fold against its KD1 stood at 10 fold; the koff1, ratio against AADN and tSH2 is 0.5 fold; the koff2 (weak set), fold against its koff1 was 20 fold; the kon1, fold against AADN and tSH2 came to 2 fold. This substance also returned a kon2 (weak set), fold against its kon1 in assay [1] of 2 fold.

Take “recombinant tSH2 module of ZAP-70 (aa 1–256) (from UniProt P43403 1-256) (domain or fragment)”: the Kd in assay [1] turned out to be 10 nM.
